pKd: −log10 of the molar value.
Legend:
[1] = tested on: TNfxB3; assay: SPR; settings: EMSA: PBS (137 mM NaCl, 2.7 mM KCl, 8 mM Na2HPO4, 2 mM KH2PO4), 2 uL glycerin in 20 uL, 80 ng DNA, 5-70 pmol protein, 25 C, 30 min, 30 uL/min …
[2] = target: T1, NfxB T39R T51R (Pseudomonas aeruginosa PAO1) (UniProt P32265); assay: EMSA; settings: EMSA: PBS (137 mM NaCl, 2.7 mM KCl, 8 mM Na2HPO4, 2 mM KH2PO4), 2 uL glycerin in 20 uL, 80 ng DNA, 5-70 pmol protein, 25 C, 30 min, SPR: PBS, 30 uL/min …
T1 sequence: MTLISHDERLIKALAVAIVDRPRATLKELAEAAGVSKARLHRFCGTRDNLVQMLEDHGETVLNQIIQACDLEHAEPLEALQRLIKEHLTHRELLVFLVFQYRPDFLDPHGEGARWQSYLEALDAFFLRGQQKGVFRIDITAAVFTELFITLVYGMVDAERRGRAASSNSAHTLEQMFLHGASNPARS

Sequence: ATACTAGCTTTGTTCACACCAAAATCAAATGAGTCAATATTGACTTATTTGATTTTTGCGTGGATCATGCGCGGCTTCGAC (double strand) [SPR operator DNA with two inverted repeats, 81 bp]
- pKd [1]: 6.04

Sequence: CTCATCGGCAGCAGTTAAATCCATCGGTCACTCTTTATCTATCGCGGGCAGATGCGGGTATTTTGCCTAGAACACTCATTTTTCTCAAAGAGGATACTAGCTTTGTTCACACCAAAATCAAATGAGTCAATATTGACTTATTTGATTTTTGCGTGGATCATGCGCGGCTTCGACTACGTACTGGCTTCGTGCTTGGGTGAGATATGAACAAATTCCGCGAATGGATCAC (double strand) [tnfxB1-tmexC1 intergenic DNA (PtmexC1), EMSA]
- binding [2]: binds more weakly
